Assay [1] deals with N-terminally His-tagged S. cerevisiae Grx5 (recombinant) (S. cerevisiae) (UniProt Q02784). Put plainly: MST.
For assay [2], the target named is monothiol glutaredoxin 5 (Grx5) (S. cerevisiae) (UniProt Q02784). In words: co-IP.

Bounds are passed on as bounds.

This note sets out measurements from publication PMC3681689.

For “recombinant His-tagged S. cerevisiae Ssq1 (natural protein)”, in assay [1], the Ka amounted to 440000 M⁻¹.
For “Ssq1-glutathione S-transferase (GST) fusion protein (natural protein)”, in assay [2], the amount bound to anti-Grx5 immunobeads relative to Ssc1 was > 4 fold.
